Series [1] concerns the target Cy3-labeled Alzheimer's amyloid-beta fibrils.
In series [2] the target is mannose 6-phosphate receptor (MPR) on cultured rat cerebellar granule neurons (rat) (UniProt P70580). Nature of the series: cell-based or functional assay.
Sequence of UniProt P70580 (P70580 whole entry): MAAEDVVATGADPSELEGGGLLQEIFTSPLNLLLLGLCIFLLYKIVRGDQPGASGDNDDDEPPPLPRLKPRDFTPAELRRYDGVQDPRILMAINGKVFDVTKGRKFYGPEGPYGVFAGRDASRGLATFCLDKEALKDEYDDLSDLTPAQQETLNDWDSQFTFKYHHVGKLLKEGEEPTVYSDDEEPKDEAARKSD

B1: recombinant human CLN2 protein produced in CHO cells (proCLN2, 65 KDa precursor) (protein)
chain: SYSPEPDQRRTLPPGWVSLGRADPEEELSLTFALRQQNVERLSELVQAVSDPSSPQYGKYLTLENVADLVRPSPLTLHTVQKWLLAAGAQKCHSVITQDFLTCWLSIRQAELLLPGAEFHHYVGGPTETHVVRSPHPYQLPQALAPHVDFVGGLHRFPPTSSLRQRPEPQVTGTVGLHLGVTPSVIRKRYNLTSQDVGSGTSNNSQACAQFLEQYFHDSDLAQFMRLFGGNFAHQASVARVVGQQGRGRAGIEASLDVQYLMSAGANISTWVYSSPGRHEGQEPFLQWLMLLSNESALPHVHTVSYGDDEDSLSSAYIQRVNTELMKAAARGLTLLFASGDSGAGCWSVSGRHQFRPTFPASSPYVTTVGGTSFQEPFLITNEIVDYISGGGFSNVFPRPSYQEEAVTKFLSSSPHLPPSSYFNASGRAYPDVAALSDGYWVVSNRVPIPWVSGTSASTPVFGGILSLINEHRILSGRPPLGFLNPRLYQQHGAGLFDVTRGCHESCLDEEVEGQGFCSGPGWDPVTGWGTPNFPALLKTLLNP
Turning to B1, in series [1], the “percent of Cy3-fAβ degraded in microglia at 12.5 nM CLN2 (against mannose-6-phosphate control)” value was “insignificant (2%) degradation at 12.5 nM”, the “percent of Cy3-fAβ degraded in microglia at 25 nM CLN2 (against mannose-6-phosphate control)” value came out at 19% at 25 nM, the “percent of Cy3-fAβ degraded in microglia at 50 nM CLN2 (against mannose-6-phosphate control)” value is reported as 22% degradation at 50 nM CLN2 and the “percent of Cy3-fAβ degraded in microglia at 100 nM CLN2 (against mannose-6-phosphate control)” value is -30% degradation of the Cy3-fAβ when 100 nM of CLN2 was added to microglia. For the same molecule, the EC50 of M6P inhibitable uptake into rat cerebellar granule neurons (intracellular TPP1 activity) in series [2] lay within 6 to 8 nM.

The record behind these values is patent US20110166074A1.
